The supplement of paper PMC10567573

B1: ZC3H15 (parent)
chain: RKADFKAGKALVISGREVFEFRPE

Variants of: B1
Assay: protein stability index of a GFP-peptide fusion (GPS, HEK-293T) (PSI 1-6); higher = more stable
Details: c terminus: a fixed tail appended
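Also: lentivirally expressed fusions sorted by FACS into six bins by GFP to DsRed ratio, PSI derived from sequencing read proportions per bin multiplied by bin number.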

Protein stability index: each site, then its substitutions
A3: R 2.85 | S 2.68 | T 3.24 | V 2.61 | W 2.51 | Y 2.52
D4: A 2.36 | C 1.79 | E 2.64 | F 1.98 | G 2.42 | H 2.15 | I 2.27 | K 2.53 | L 1.91 | M 2.54 | N 2.03 | P 2.36 | Q 2.73 | R 2.55 | S 2.55 | T 1.98 | V 2.2 | W 1.73 | Y 2.12
F5: A 3.91 | C 3.55 | D 3.77 | E 4.18 | G 4.05 | H 3.77 | I 2.94 | K 3.47 | L 3.93 | M 2.85 | N 3.38 | P 3.25 | Q 3.8 | R 3.76 | S 3.77 | T 3.59 | V 3.6 | W 2.48 | Y 3.16
K6: A 2.71 | C 2.79 | D 3.75 | E 3.24 | F 1.79 | G 2.4 | H 2.6 | I 2.42 | L 2.29 | M 2.36 | N 3.22 | P 2.72 | Q 2.44 | R 2.29 | S 2.82 | T 2.99 | V 3.03 | W 2.4 | Y 2.87
A7: C 2.35 | D 3.12 | E 2.86 | F 2.21 | G 2.86 | H 2.75 | I 2.66 | K 3.67 | L 2.08 | M 2.46 | N 3.11 | P 3.2 | Q 2.93 | R 2.85 | S 3.26 | T 3.12 | V 2.91 | W 1.71 | Y 2.18
G8: A 2.94 | C 2.14 | D 3.31 | E 2.99 | F 1.93 | H 2.66 | I 2.23 | K 3.24 | L 1.92 | M 2.59 | N 3.3 | P 2.65 | Q 2.85 | R 2.52 | S 2.7 | T 2.78 | V 2.16 | W 1.79 | Y 1.74
K9: A 3.02 | C 2.33 | D 3.18 | E 3.11 | F 1.7 | G 2.28 | H 2.93 | I 1.57 | L 1.99 | M 2.31 | N 3.16 | P 2.78 | Q 2.65 | R 2.31 | S 3.16 | T 3.04 | V 2.48 | W 1.87 | Y 1.05
A10: C 2.12 | D 3.5 | E 2.97 | F 1.53 | G 2.86 | H 2.75 | I 2.09 | K 2.47 | L 2.09 | M 2.09 | N 3.16 | P 3.73 | Q 3.17 | R 3.09 | S 2.86 | T 2.88 | V 2.49 | W 2.97 | Y 1.92
L11: A 3.06 | C 3.09 | D 3.69 | E 3.78 | F 2.65 | G 3.46 | H 3.36 | I 2.72 | K 3.77 | M 2.84 | N 4.1 | P 3.54 | Q 3.66 | R 2.95 | S 3.69 | T 3.76 | V 3.11 | W 2.55 | Y 2.29
V12: A 3.23 | C 2.89 | D 4.03 | E 3.49 | F 2.39 | G 3.17 | H 3.52 | I 2.85 | K 2.91 | L 2.42 | M 3.26 | N 3.93 | P 3.82 | Q 3.15 | R 3.31 | S 3.47 | T 2.68 | W 2.4 | Y 2.73
I13: A 3.86 | C 3.2 | D 4.17 | E 4.28 | F 2.32 | G 4 | H 3.13 | K 3.79 | L 3.55 | M 3.26 | N 3.95 | P 3.48 | Q 3.72 | R 3.89 | S 3.8 | T 3.21 | V 3.51 | W 2.8 | Y 2.77
S14: A 2.86 | C 1.21 | D 3.82 | E 3.67 | F 1.23 | G 3.11 | H 3.31 | I 1.93 | K 3.32 | L 1.57 | M 2.49 | N 2.66 | P 3.44 | Q 2.81 | R 2.56 | T 2.98 | V 1.43 | W 1.87 | Y 2.39
G15: A 2.64 | C 2.07 | D 3.38 | E 3.65 | F 2.27 | H 2.2 | I 2.37 | K 3.14 | L 1.81 | M 2.04 | N 3.4 | P 3.37 | Q 2.92 | R 2.73 | S 3.18 | T 2.93 | V 2.06 | W 1.37 | Y 1.85
R16: A 2.71 | C 1.89 | D 3.69 | E 3.7 | F 1.65 | G 2.99 | H 2.98 | I 1.92 | K 3.38 | L 2.42 | M 2.08 | N 3.63 | P 3.27 | Q 3.61 | S 3.21 | T 2.99 | V 1.91 | W 1.92 | Y 1.54
E17: A 1.47 | C 1.71 | D 2.88 | F 2.17 | G 2.3 | H 1.9 | I 1.64 | K 2.08 | L 2.04 | M 1.14 | N 2.57 | P 2.66 | Q 1.96 | R 2.67 | S 2.06 | T 1.75 | V 2.25 | W 2.12 | Y 2.19
V18: A 3.33 | C 2.95 | D 3.69 | E 3.89 | F 2.68 | G 3.37 | H 3.22 | I 2.95 | K 3.56 | L 2.72 | M 2.8 | N 3.61 | P 3.05 | Q 3.46 | R 3.58 | S 3.34 | T 3.32 | W 2.86 | Y 2.74
F19: A 4.01 | C 3.76 | D 4.68 | E 4.23 | G 3.7 | H 4.13 | I 3.51 | K 3.47 | L 3.33 | M 3.43 | N 4.05 | P 4.08 | Q 3.63 | R 4.24 | S 3.51 | T 3.7 | V 3.25 | W 2.43 | Y 2.75
E20: A 2.5 | C 2.68 | D 3.37 | F 1.96 | G 3.1 | H 2.13 | I 1.71 | K 2.68 | L 2.51 | M 2.27 | N 2.81 | P 2.62 | Q 2.74 | R 3.14 | S 2.1 | T 2.73 | V 2.34 | W 1.61 | Y 1.66
F21: A 3.05 | C 3.78 | D 4.04 | E 4.46 | G 4.2
